Laboratory results: paper PMC7049685, “The C-terminal tail of the yeast mitochondrial transcription factor Mtf1 coordinates template strand alignment, DNA scrunching and timely transition into elongation” (Nucleic Acids Research, 2020)
Where two headings read alike, the source gives them in different places. One block for each molecule: values may come before it.

Legend:
[1] = biological target: T1, Rpo41-Mtf1 (yeast mitochondrial RNA polymerase with initiation factor Mtf1) on promoter DNA (Saccharomyces cerevisiae, UniProt P13433); experiment: 2-aminopurine fluorescence titration, hyperbolic fit; type: binding
T1 construct: assembled on 15S or 21S rRNA promoter DNA; with Mitochondrial transcription factor 1
T1 sequence (P13433 1-1351): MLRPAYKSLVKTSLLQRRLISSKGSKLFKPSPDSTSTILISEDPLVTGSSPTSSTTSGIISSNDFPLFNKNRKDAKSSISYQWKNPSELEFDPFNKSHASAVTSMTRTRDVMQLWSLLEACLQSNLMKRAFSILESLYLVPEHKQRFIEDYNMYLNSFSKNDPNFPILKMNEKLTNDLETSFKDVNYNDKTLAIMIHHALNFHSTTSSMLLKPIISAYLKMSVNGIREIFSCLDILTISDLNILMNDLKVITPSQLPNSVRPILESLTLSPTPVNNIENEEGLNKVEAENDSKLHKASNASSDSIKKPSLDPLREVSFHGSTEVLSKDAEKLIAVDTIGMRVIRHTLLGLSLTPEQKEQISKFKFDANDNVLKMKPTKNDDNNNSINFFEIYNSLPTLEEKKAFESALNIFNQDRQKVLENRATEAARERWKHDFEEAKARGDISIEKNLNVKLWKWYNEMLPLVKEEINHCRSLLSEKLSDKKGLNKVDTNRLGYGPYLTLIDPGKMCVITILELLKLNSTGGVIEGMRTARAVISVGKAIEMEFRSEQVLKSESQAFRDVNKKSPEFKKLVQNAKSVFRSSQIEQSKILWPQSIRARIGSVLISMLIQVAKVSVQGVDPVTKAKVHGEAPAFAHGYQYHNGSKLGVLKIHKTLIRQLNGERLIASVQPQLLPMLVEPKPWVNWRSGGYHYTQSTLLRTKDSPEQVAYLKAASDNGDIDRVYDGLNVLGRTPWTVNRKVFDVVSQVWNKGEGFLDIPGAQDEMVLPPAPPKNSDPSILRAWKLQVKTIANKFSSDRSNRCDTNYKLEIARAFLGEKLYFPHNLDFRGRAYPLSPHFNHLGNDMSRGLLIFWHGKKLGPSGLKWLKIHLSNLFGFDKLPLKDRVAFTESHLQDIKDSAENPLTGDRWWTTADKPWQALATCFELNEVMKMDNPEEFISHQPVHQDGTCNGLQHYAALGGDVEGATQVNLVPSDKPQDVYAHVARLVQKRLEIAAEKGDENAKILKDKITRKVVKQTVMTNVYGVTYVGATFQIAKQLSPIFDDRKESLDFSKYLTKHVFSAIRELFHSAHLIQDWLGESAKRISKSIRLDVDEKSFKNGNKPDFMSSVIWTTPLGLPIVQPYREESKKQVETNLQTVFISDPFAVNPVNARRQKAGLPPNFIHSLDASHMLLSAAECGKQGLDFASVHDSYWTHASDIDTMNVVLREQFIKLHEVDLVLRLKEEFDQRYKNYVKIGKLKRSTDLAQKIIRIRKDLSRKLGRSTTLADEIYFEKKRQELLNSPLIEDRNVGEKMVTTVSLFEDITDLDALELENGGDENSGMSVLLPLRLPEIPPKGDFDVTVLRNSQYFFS
T1 sequence (P14908 2-341 partner): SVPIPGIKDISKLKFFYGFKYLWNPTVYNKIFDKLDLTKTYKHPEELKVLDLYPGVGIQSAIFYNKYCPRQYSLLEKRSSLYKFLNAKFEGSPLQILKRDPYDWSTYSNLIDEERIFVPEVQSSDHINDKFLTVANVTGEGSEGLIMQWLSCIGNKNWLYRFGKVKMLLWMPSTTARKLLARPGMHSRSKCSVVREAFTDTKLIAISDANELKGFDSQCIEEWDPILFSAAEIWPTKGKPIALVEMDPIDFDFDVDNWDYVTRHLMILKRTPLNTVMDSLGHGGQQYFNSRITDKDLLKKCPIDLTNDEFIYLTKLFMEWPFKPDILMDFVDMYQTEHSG

[2] = biological target: T1, Rpo41-Mtf1 (yeast mitochondrial RNA polymerase with initiation factor Mtf1) on promoter DNA; experiment: radiometric gel assay of 2-mer RNA synthesis, Michaelis-Menten fit; type: biochemical; details: 21S rRNA AA promoter, [γ-32P]ATP, 1 μM Rpo41, 2 μM Mtf1-Δ20, 10 mM Mg acetate, pH 7.5, 25 °C
[3] = biological target: T1, Rpo41-Mtf1 (yeast mitochondrial RNA polymerase with initiation factor Mtf1) on promoter DNA; experiment: 2-aminopurine fluorescence titration, hyperbolic fit; type: binding; details: composite Kd of +1 and +2 initiating ATP; 15S rRNA AA promoter with 2AP at -1 (200 nM), 400 nM Rpo41 and Mtf1-Δ20, 10 mM Mg acetate, pH 7.5, 25 °C
[4] = substrate: Nc1ncnc2c1ncn2[C@@H]1O[C@H](COP(=O)(O)OP(=O)(O)OP(=O)(O)O)[C@@H](O)[C@H]1O; experiment: radiometric gel assay of 2-mer RNA synthesis, Michaelis-Menten fit; type: biochemical, Saccharomyces cerevisiae; details: 21S rRNA AA promoter, [γ-32P]ATP, 1 μM Rpo41, 2 μM Mtf1, 10 mM Mg acetate, pH 7.5, 25 °C
Rpo41;Mtf1-WT [5] = biological target: T2, Rpo41;Mtf1-WT (Saccharomyces cerevisiae;Saccharomyces …, UniProt P13433;P14908 28-1351;1-341, |); experiment: fluorescence anisotropy; 10 mM Mg acetate; 50 mM Tris-acetate pH 7.5, 100 mM potassium glutamate, 10 mM magnesium acetate, 0.01% Tween-20, 25 °C; 5 nM TAMRA-DNA; details: protein: recombinant;recombinant; tags: ;; copies: 1;1; label: TAMRA at 5' end of template strand (strand 2); blunt
Rpo41;Mtf1-Δ20 = Rpo41;Mtf1-Δ20 (Saccharomyces cerevisiae;Saccharomyces …, UniProt P13433;P14908 28-1351;1-321, |); experiment: as above; details: protein: recombinant;recombinant; tags: ;; copies: 1;1; label: TAMRA at 5' end of template strand (strand 2); blunt
Chain of Rpo41;Mtf1-Δ20 (P14908 1-321, stated change not applied, chain 2 of 2, one chain of several): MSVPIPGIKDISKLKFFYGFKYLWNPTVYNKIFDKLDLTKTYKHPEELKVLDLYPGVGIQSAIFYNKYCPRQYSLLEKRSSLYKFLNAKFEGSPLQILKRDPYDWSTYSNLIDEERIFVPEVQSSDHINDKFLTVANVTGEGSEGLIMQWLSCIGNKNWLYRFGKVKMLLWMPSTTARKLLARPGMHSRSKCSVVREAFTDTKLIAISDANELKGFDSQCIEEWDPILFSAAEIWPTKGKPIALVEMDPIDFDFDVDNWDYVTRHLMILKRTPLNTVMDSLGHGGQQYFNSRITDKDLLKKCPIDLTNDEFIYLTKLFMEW

Rpo41;Mtf1-Δ16 = Rpo41;Mtf1-Δ16 (Saccharomyces cerevisiae;Saccharomyces …, UniProt P13433;P14908 28-1351;1-325, |); experiment: fluorescence anisotropy; 10 mM Mg acetate; Kd in Figure S2C table not in the material; 50 mM Tris-acetate pH 7.5, 100 mM potassium glutamate, 10 mM magnesium acetate, 0.01% Tween-20, 25 °C; 5 nM TAMRA-DNA; details: protein: recombinant;recombinant; tags: ;; copies: 1;1; label: TAMRA at 5' end of template strand (strand 2); blunt
Chain of Rpo41;Mtf1-Δ16 (P14908 1-325, stated change not applied, one chain of several): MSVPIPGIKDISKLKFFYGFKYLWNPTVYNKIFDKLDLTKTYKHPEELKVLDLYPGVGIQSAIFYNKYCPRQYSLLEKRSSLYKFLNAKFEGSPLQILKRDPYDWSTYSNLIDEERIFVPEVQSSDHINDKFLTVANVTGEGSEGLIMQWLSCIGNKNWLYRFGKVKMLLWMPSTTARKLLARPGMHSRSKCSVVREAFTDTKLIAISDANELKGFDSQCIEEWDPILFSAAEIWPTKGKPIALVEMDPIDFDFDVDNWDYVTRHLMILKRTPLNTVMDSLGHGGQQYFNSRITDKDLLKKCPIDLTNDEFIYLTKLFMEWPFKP

Rpo41;Mtf1-WT [6] = biological target: T2, Rpo41;Mtf1-WT; experiment: single-molecule FRET; no initiating nucleotides; EFRET 0.14 to 0.38; 50 mM Tris-acetate pH 7.5, 100 mM potassium glutamate, 10 mM magnesium acetate, 0.01% Tween-20, 25 °C; 5 nM TAMRA-DNA; details: protein: recombinant;recombinant; tags: ;; copies: 1;1; label: FRET donor and acceptor (Cy3, Cy5)

- Kd [1]: 65 µM
- Km [2]: 364 µM
- Kd [3]: 500 µM
Molecule: Nc1ncnc2c1ncn2[C@@H]1O[C@H](COP(=O)(O)OP(=O)(O)OP(=O)(O)O)[C@@H](O)[C@H]1O [ATP]

B1: Rpo41-Mtf1 (yeast mitochondrial RNA polymerase with initiation factor Mtf1) on promoter DNA (Saccharomyces cerevisiae S288C) (protein)
chain: MLRPAYKSLVKTSLLQRRLISSKGSKLFKPSPDSTSTILISEDPLVTGSSPTSSTTSGIISSNDFPLFNKNRKDAKSSISYQWKNPSELEFDPFNKSHASAVTSMTRTRDVMQLWSLLEACLQSNLMKRAFSILESLYLVPEHKQRFIEDYNMYLNSFSKNDPNFPILKMNEKLTNDLETSFKDVNYNDKTLAIMIHHALNFHSTTSSMLLKPIISAYLKMSVNGIREIFSCLDILTISDLNILMNDLKVITPSQLPNSVRPILESLTLSPTPVNNIENEEGLNKVEAENDSKLHKASNASSDSIKKPSLDPLREVSFHGSTEVLSKDAEKLIAVDTIGMRVIRHTLLGLSLTPEQKEQISKFKFDANDNVLKMKPTKNDDNNNSINFFEIYNSLPTLEEKKAFESALNIFNQDRQKVLENRATEAARERWKHDFEEAKARGDISIEKNLNVKLWKWYNEMLPLVKEEINHCRSLLSEKLSDKKGLNKVDTNRLGYGPYLTLIDPGKMCVITILELLKLNSTGGVIEGMRTARAVISVGKAIEMEFRSEQVLKSESQAFRDVNKKSPEFKKLVQNAKSVFRSSQIEQSKILWPQSIRARIGSVLISMLIQVAKVSVQGVDPVTKAKVHGEAPAFAHGYQYHNGSKLGVLKIHKTLIRQLNGERLIASVQPQLLPMLVEPKPWVNWRSGGYHYTQSTLLRTKDSPEQVAYLKAASDNGDIDRVYDGLNVLGRTPWTVNRKVFDVVSQVWNKGEGFLDIPGAQDEMVLPPAPPKNSDPSILRAWKLQVKTIANKFSSDRSNRCDTNYKLEIARAFLGEKLYFPHNLDFRGRAYPLSPHFNHLGNDMSRGLLIFWHGKKLGPSGLKWLKIHLSNLFGFDKLPLKDRVAFTESHLQDIKDSAENPLTGDRWWTTADKPWQALATCFELNEVMKMDNPEEFISHQPVHQDGTCNGLQHYAALGGDVEGATQVNLVPSDKPQDVYAHVARLVQKRLEIAAEKGDENAKILKDKITRKVVKQTVMTNVYGVTYVGATFQIAKQLSPIFDDRKESLDFSKYLTKHVFSAIRELFHSAHLIQDWLGESAKRISKSIRLDVDEKSFKNGNKPDFMSSVIWTTPLGLPIVQPYREESKKQVETNLQTVFISDPFAVNPVNARRQKAGLPPNFIHSLDASHMLLSAAECGKQGLDFASVHDSYWTHASDIDTMNVVLREQFIKLHEVDLVLRLKEEFDQRYKNYVKIGKLKRSTDLAQKIIRIRKDLSRKLGRSTTLADEIYFEKKRQELLNSPLIEDRNVGEKMVTTVSLFEDITDLDALELENGGDENSGMSVLLPLRLPEIPPKGDFDVTVLRNSQYFFS
notes: assembled on 15S or 21S rRNA promoter DNA; with Mitochondrial transcription factor 1
- Km [4]: 165 µM
- kcat [4]: 0.4 s⁻¹

B2: 15S rRNA AA promoter -12 to +8 (dsDNA)
DNA 1: TATTATATAAGTAATAAATA
DNA 2: TATTTATTACTTATATAATA
- Kd (Rpo41;Mtf1-WT [5]): 0.00012 ± 5e-05 µM
- Kd (Rpo41;Mtf1-Δ20): 0.00081 ± 0.0001 µM
- binding signal (Rpo41;Mtf1-Δ16): ~7 fold weaker than Mtf1-WT

B3: smFRET promoter DNA template (position 0) (dsDNA)
DNA 1: TGGCCACGGCAGCGAGGCTATTATATATATAAGTAGTAACAAGTAGAATA
DNA 2: TATTCTACTTGTTACTACTTATATATATAATAGCCTCGCTGCCGTGGCCA
- binding result (Rpo41;Mtf1-WT [6]): binds
